Our source for the stoichiometry N, binding result and fold slower complexation than with wild-type hCCS values is paper PMC6383938 (PLoS Biology, 2019).

Series [1] concerns the target human copper chaperone for SOD1 domain II–III construct (human). The series is described as follows: SEC-MALS; SEC and light scattering–derived molecular weights of hCCS truncations at micromolar concentration. (In general: Size exclusion chromatography separates by hydrodynamic size, large species first.)
Series [2] concerns the molecule itself. The series is described as follows: SEC; size exclusion chromatograms of hCCS alone (wild type and Ala231Gly); relative amounts of dimeric and monomeric species.
In series [3] the target is human superoxide dismutase-1 as used in the SEC complexation assays (variant not stated) (human) (UniProt P00441). The series is described as follows: SEC; complexation of hCCS dimer interface variants with hSOD1 followed over a time course from 8 minutes to 4 days; Agilent BioSec Advance 300 Å 4.6 × 300 mm column; heterodimer peak height plotted.

“human copper chaperone for SOD1 domain II–III construct (domain or fragment)”: the stoichiometry N in series [1] was 2.

B1: human copper chaperone for SOD1 Ala231Gly (natural protein, UniProt O14618 1-274, looked up)
chain: MASDSGNQGTLCTLEFAVQMTCQSCVDAVRKSLQGVAGVQDVEVHLEDQMVLVHTTLPSQEVQALLEGTGRQAVLKGMGSGQLQNLGAAVAILGGPGTVQGVVRFLQLTPERCLIEGTIDGLEPGLHGLHVHQYGDLTNNCNSCGNHFNPDGASHGGPQDSDRHRGDLGNVRADADGRAIFRMEDEQLKVWDVIGRSLIIDEGEDDLGRGGHPLSKITGNSGERLACGIIGRSAGLFQNPKQICSCDGLTIWEERGRPIAGKGRKESAQPPAHL
notes: also called Ala231Gly hCCS; A231G hCCS; source: expressed and purified as previously described [29,35,42]
As to B1, in series [2], the binding result is on record as “binds”. The fold slower complexation than with wild-type hCCS in series [3] was > 300 fold.

B2: wild-type human copper chaperone for SOD1 (natural protein, UniProt O14618 1-274, looked up)
chain: MASDSGNQGTLCTLEFAVQMTCQSCVDAVRKSLQGVAGVQDVEVHLEDQMVLVHTTLPSQEVQALLEGTGRQAVLKGMGSGQLQNLGAAVAILGGPGTVQGVVRFLQLTPERCLIEGTIDGLEPGLHGLHVHQYGDLTNNCNSCGNHFNPDGASHGGPQDSDRHRGDLGNVRADADGRAIFRMEDEQLKVWDVIGRSLIIDEGEDDLGRGGHPLSKITGNSGERLACGIIARSAGLFQNPKQICSCDGLTIWEERGRPIAGKGRKESAQPPAHL
notes: human copper chaperone for SOD1 (hCCS), wild type; also called hCCS; wild-type hCCS; source: expressed and purified as previously described [29,35,42]
For the molecule B2, the binding result in series [2] is “binds”.

For orientation: stoichiometry N means the number of molecules, sites or subunits per partner or assembly.
